Source: CN115960240A (CHINESE ACADEMY OF MEDICAL SCIENCES HEMATOLOGIC DISEASE …, dated 2023)

What was measured:
人CD3 = biological target: T1, 人CD3 (human, UniProt P07766 23-207); assay: FACS titration (400 nM to 0.025 nM) on Jurkat cells, mean fluorescence, fitted in GraphPad Prism 7
T1 construct: whole, on cells; also called Jurkat细胞表面CD3蛋白

人BCMA (B细胞成熟抗原) = biological target: T2, 人BCMA (B细胞成熟抗原) (human, UniProt Q02223 1-184); assay: FACS titration (400 nM to 0.025 nM) on H929 cells, mean fluorescence, fitted in GraphPad Prism 7
T2 construct: whole, on cells; Endogenous BCMA on H929 cells; also called B-cell maturation antigen; H929细胞表面BCMA蛋白
T2 sequence (looked up): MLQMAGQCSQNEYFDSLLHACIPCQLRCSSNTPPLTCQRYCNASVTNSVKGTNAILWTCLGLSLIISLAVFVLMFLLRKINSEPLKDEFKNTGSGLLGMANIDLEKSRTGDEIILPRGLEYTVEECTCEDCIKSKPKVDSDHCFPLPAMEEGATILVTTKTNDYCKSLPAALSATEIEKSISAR

T1 sequence (P07766 23-207): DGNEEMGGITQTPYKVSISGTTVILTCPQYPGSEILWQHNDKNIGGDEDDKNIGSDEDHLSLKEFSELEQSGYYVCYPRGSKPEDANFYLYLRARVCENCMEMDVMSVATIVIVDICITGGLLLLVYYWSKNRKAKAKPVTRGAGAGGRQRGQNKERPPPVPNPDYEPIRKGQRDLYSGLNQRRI

B1: 四价双特异性抗体Tandab(CD3/BCMA) (bispecific antibody)
chain: DADIELTQSPAIMSASPGEKVTMTCSASSSVSYMNWYQQKSGTSPKRWIYDTSKLASGVPARFSGSGSGTSYSLTISGMEAEDAATYYCQQWSSNPFTFGCGTKLELKRGGGGSQVQLQQSGAEVVRPGTSVKVSCKASGYAFTNYLIEWVKQRPGQGPEWIGVITPGRGDTKYNAKFAGKATLTADKSSSTAYMQLSSLTFDDSAVYFCARGTTAWFPYWGQGTLVTVSAGGGGSGGGGSGGGGSDIVLTQSPASLTVSLGQRATISCRASKSVSTSGYSYMHWYQQKPRQPPKLLIYLASNLESGVPARFSGSGSGTDFTLNIHPVEEEDAATYYCQHSRDLPYTFGGGTKLEIKRAGGGGSQVQLQQSGAELARPGASVKMSCKASGYTFTRYTMHWVKQRPGQCLEWIGYINPSRGYTNYNQKFKDKATLTTDKSSSTAYMELTRLTSEDSAVYYCARYYDDHYSLDYWGQGTTVTVSSHHHHHH
notes: Tetravalent tandem diabody made from anti-BCMA mAb 69G8 and anti-CD3 mAb HIT3a, expressed in ExpiCHO-S cells and purified on a nickel column; detected with an anti-His secondary antibody, so it carries a His tag
Kd (人CD3): 1.96 nM | Kd (人BCMA (B细胞成熟抗原)): 1.96 nM
